Measured values reported in patent US20230062712A1 (SILVERBACK THERAPEUTICS, published 2023).

Columns and labels:
rat ASGR1 on CHO-S cells = target: T1, rat ASGR1 on CHO-S cells (rat, UniProt P02706 1-284); assay: flow cytometry (Guava) on CHO-S cells transfected with rat ASGR1
T1 construct: whole, on cells
T1 sequence (looked up): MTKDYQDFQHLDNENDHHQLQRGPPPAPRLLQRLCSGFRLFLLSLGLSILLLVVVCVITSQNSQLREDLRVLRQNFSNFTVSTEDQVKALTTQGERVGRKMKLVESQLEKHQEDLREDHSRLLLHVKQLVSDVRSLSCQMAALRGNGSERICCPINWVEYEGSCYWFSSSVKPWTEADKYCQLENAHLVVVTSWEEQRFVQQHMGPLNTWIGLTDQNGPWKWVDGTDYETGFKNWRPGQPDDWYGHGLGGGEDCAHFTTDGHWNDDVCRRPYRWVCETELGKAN
Procedure: Anti-human ASGR1 antibodies of this disclosure were examined for cross-reactivity with Cynomolgus macaque and rat ASGR1. Briefly, sequence encoding Cynomolgus macaque or rat ASGR1 was transiently transfected into CHO-S cells. Transfected cells were before performing cell binding assay. A total of about 1.5×10⁴ transfected cells/well were added to 96-well V-bottom assay plate, incubated at 37° C., 5% CO2 for 48-72 hours, and then washed with culture medium before adding 100 μl of each ASGR1 antibody at different concentrations starting from 100 nM and 3-fold dilutions to a total of eight wells. The cells with antibody were incubated for 40 minutes at 4° C., then washed three times with 200 μl of fresh culture medium. To each well was added 50 μl PE conjugated goat anti-human Fc (SouthernBiotech) at 1:200 dilution in culture medium and then incubated at 4° C. for 20 minutes. After washing the plate once, the treated cells were resuspended in 200 μl culture medium and then the stained cells were analyzed on GUAVA® using Incyte software.

[1] = target: T2, His-tagged rat C-type lectin domain family 10 member A (CLEC10A) extracellular domain (rat) (UniProt P49301); assay: Octet, His-tagged rat CLEC10A ECD on Penta-His sensors, antibody at 25 µg/mL
T2 sequence (looked up): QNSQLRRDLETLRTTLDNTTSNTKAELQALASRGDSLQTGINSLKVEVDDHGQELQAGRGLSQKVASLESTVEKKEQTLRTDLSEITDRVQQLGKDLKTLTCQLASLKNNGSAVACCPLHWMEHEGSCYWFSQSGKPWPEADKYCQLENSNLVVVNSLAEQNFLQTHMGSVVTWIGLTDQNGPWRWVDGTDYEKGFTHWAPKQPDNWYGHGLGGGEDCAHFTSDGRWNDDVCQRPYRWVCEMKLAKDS

[2] = target: T2, His-tagged rat C-type lectin domain family 10 member A (CLEC10A) extracellular domain (rat); assay: Octet, biotinylated mAb on streptavidin sensors, monomeric rat CLEC10A ECD from 200 nM in 3x dilutions, bivalent binding model

| Binder | binding result (rat ASGR1 on CHO-S cells) | Response (nm) [1] [nm] | Kd [2] [nM] |
| --- | --- | --- | --- |
| hzH8K-1 (antibody, V domains shown, IgG1 and kappa constant regions) VH: QVQLQESGPGLVKPSQTLSLTCTVSGGSISSDYAWNWIRQHPGKGLEWIGYRSYRGSTSYNPSLKSRVTISVDTSKNQFSLKLSSVTAADTAVYYCARRGYYGSSSHWYFDVWGQGTTVTVSS VL: DIQMTQSPSSLSASVGDRVTITCRASENIYSYLAWYQQKPGKAPKLLIYNAKTLAEGVPSRFSGSGSGTDFTLTISSLQPEDFATYYCQHHYGTPLTFGGGTKVEIK | no binding (tested: starting from 100 nM) |  |  |
| hzL4L-7 (antibody, V domains shown, IgG1 and kappa constant regions) VH: QVQLQESGPGLVKPSQTLSLTCTVSGYSISSDYAWNWIRQHPGKGLEWIGYISYSGSTRYNPSLKSRVTITRDTSKNQFSLKLSSVTAADTAVYYCARRYRYDEGYGMDYWGQGTTVTVSS VL: DIQMTQSPSSLSASVGDRVTITCRASENIYSNLAWYQQKPGKAPKLLIYAATNLADGVPSRFSGSGSGTDFTLTISSLQPEDFATYYCQHFWGTPPWTFGGGTKVEIK | no binding (tested: starting from 100 nM) |  |  |
| ASGR1 mAb-B (antibody, from another filing, V domains shown) VH: EVQLVESGGGLVKPGGSLRLSCAASGFTFSSYSMNWVRQAPGKGLEWVSSISGSSSYIYYADSVKGRFTISRDNAKNSLYLQMNSLRAEDTAVYFCARGGSRGFDPWGQGTLVTVSS VL: DIQMTQSPSSLSASVGDRVTITCRASQSITSYLNWYQQKPGKAPKLLIYTASSLQSGVPSRFSGSGSGTDFTLTISSLQPEDFATYYCQQSHSFPFTFGPGTKVDIK |  | 0.598 | 28.1 |
